This is an account of results in patent US20250207119A1.

The target of assay [1] is ADAM17 from R & D Systems (UniProt P78536). Briefly: cell-based or functional assay.
Assay [2] has as its target Human ADAM10 from R & D Systems (human) (UniProt O14672). Briefly: cell-based or functional assay.

Sequence of ADAM17 from R & D Systems (P78536 215-671 limits assumed): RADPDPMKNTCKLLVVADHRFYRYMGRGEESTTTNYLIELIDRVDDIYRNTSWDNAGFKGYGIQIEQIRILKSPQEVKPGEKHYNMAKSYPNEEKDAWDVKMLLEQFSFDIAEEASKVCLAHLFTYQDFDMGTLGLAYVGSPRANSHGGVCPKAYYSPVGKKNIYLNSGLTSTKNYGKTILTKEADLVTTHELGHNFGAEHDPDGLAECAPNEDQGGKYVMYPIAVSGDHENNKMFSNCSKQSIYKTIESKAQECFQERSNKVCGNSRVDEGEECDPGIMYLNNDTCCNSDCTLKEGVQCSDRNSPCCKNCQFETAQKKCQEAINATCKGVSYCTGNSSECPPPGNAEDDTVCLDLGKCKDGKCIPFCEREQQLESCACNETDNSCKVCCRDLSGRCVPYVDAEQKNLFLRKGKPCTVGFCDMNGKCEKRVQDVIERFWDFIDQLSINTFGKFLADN
Sequence of Human ADAM10 from R & D Systems (human) (O14672 214-672 limits assumed): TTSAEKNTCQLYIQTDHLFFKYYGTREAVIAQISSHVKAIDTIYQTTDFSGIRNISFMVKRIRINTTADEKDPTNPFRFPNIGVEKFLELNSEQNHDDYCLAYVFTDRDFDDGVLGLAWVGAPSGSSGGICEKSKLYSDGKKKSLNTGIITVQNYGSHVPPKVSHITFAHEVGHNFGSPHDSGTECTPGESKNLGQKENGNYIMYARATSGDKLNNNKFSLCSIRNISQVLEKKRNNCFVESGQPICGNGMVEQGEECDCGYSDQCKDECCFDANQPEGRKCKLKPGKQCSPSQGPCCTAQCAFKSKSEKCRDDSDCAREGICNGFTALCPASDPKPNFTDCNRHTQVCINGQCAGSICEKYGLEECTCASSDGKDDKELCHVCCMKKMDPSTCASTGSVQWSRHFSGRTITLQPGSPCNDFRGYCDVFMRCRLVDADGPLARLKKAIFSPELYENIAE

B1: Cys151-pegylated SEQ ID NO: 1 (peptide, not shown: small tags and cut ends)
chain: NPLNKYIRHYEGLSYNVDSLHQKHQRAKRAVSHEDQFLRLDFHAHGRHFNLRMKRDTSLFSDEFKVETSNKVLDYDTSHIYTGHIYGEEGSFSHGSVIDGRFEGFIQTRGGTFYVEPAERYIKDRTLPFHSVIYHEDDINYPHKYGPQGGCADHSVFERMRKYQMTGVEEVTQIPQEEHAANGPELLRK
modifications: 10 kDa maleimide PEG on Cys151
Molecule B1 displayed a percent inhibition of ADAM17 activity in assay [1] of 33 % at 6.7 µM. Also, the IC50 (nM), inhibition of ADAM10 cleavage of the fluorescent substrate PEPDAB064 in assay [2] amounted to 49 nM.
